Experimental findings from the supplement of paper PMC10065799, “High-throughput profiling of sequence recognition by tyrosine kinases and SH2 domains using bacterial peptide display” (eLife, 2023) are described below.

Series [1] deals with Hck (UniProt P08631). As to the kind of experiment: phosphorylation enrichment, bacterial display (enrichment ratio); higher = better substrate or ligand; peptides without Tyr show the background.
Series [2] addresses Jak2 (UniProt O60674). Described as above.
For series [3], the target named is Fyn (UniProt P06241). Described as above.
For series [4], the target named is Fes (UniProt P07332). Described as above.
In series [5] the test system is Fer (mouse). The series is described as above.
The test system of series [6] is c-Src. The series is described as above.
In series [7] the target is EPHB2 (UniProt P29323). Described as above.
Series [8] addresses MERTK (UniProt Q12866). The description is as above.
The subject of series [9] is c-Abl (mouse). The series is described as above.
The target in series [10] is EPHB1 (UniProt P54762). The description is as above.
Series [11] has as its target FGFR1 (UniProt P11362). The series is described as above.
For series [12], the target named is FGFR3 (UniProt P22607). The description is as above.
In series [13] the test system is AncSZ. The series is described as above.
Series [14] concerns the target Grb2 SH2 (UniProt P62993). As to the kind of experiment: SH2 binding enrichment of the phosphorylated peptide, bacterial display (enrichment ratio); higher = better substrate or ligand; peptides without Tyr show the background.
The target of series [15] is c-Src SH2. Described as above.
The target of series [16] is SHP2-C SH2. Described as above.
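Wherever SH2 binding enrichment of the phosphorylated peptide, bacterial display is given: peptide library displayed on the E. coli surface as eCPX fusions, selected cells deep-sequenced, score is each peptide's frequency after selection divided by its frequency in the input.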
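Wherever phosphorylation enrichment, bacterial display is given: 11-residue human phosphosite peptides and single-mutation variants displayed on the E. coli surface, counted by deep sequencing, each peptide's frequency after selection divided by its frequency in the unselected input library; frequency after pTyr selection over input frequency; kinase dosed for 20-30% of maximal phosphorylation in three min.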

Sequence of FGFR1 (P11362 whole entry, looked up): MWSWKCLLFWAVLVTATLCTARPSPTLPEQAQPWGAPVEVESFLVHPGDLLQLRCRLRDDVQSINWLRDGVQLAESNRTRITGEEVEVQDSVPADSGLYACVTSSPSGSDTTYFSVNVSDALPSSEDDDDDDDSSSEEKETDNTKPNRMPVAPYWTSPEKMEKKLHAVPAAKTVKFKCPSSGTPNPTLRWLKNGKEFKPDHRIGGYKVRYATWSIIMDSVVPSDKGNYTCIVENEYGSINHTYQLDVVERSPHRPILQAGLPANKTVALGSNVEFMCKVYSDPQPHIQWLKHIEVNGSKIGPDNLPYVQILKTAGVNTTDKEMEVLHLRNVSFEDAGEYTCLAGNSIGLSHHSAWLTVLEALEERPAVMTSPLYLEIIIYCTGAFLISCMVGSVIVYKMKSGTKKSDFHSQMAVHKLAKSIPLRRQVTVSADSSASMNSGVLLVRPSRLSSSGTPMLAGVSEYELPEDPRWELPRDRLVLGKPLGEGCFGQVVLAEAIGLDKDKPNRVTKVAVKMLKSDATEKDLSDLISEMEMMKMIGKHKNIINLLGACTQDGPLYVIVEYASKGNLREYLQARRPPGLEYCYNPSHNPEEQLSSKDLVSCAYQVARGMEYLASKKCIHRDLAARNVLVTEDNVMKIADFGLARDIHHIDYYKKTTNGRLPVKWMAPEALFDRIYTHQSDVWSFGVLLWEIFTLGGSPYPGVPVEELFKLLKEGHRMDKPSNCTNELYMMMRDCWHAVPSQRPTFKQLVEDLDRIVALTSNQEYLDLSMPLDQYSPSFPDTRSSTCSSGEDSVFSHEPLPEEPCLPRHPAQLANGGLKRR
Sequence of MERTK (Q12866 whole entry, looked up): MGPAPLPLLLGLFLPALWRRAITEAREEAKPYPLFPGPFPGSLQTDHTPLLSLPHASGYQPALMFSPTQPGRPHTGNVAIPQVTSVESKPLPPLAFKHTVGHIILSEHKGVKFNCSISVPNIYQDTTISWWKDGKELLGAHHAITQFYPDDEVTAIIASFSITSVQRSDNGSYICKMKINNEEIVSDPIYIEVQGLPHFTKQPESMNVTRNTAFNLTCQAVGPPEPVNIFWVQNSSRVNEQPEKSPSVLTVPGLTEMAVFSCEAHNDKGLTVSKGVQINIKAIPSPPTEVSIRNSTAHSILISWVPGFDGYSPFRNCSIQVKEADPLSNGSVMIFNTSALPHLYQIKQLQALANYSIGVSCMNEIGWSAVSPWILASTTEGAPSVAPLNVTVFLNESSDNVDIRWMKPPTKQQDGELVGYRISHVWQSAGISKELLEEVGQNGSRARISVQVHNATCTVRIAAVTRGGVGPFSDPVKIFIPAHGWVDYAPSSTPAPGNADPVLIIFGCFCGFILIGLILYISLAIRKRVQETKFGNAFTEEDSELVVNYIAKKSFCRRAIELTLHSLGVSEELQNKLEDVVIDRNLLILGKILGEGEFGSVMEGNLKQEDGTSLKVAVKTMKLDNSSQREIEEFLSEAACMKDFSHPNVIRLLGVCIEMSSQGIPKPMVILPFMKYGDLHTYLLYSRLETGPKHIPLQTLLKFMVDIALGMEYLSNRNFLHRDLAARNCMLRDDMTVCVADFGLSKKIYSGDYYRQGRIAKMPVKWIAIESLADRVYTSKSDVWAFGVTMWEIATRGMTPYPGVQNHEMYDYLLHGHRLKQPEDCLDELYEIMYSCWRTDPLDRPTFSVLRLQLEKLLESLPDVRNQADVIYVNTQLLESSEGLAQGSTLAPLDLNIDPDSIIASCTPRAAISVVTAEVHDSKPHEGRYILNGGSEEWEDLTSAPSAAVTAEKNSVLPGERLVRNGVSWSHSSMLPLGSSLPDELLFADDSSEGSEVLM
Sequence of EPHB2 (P29323 whole entry, looked up): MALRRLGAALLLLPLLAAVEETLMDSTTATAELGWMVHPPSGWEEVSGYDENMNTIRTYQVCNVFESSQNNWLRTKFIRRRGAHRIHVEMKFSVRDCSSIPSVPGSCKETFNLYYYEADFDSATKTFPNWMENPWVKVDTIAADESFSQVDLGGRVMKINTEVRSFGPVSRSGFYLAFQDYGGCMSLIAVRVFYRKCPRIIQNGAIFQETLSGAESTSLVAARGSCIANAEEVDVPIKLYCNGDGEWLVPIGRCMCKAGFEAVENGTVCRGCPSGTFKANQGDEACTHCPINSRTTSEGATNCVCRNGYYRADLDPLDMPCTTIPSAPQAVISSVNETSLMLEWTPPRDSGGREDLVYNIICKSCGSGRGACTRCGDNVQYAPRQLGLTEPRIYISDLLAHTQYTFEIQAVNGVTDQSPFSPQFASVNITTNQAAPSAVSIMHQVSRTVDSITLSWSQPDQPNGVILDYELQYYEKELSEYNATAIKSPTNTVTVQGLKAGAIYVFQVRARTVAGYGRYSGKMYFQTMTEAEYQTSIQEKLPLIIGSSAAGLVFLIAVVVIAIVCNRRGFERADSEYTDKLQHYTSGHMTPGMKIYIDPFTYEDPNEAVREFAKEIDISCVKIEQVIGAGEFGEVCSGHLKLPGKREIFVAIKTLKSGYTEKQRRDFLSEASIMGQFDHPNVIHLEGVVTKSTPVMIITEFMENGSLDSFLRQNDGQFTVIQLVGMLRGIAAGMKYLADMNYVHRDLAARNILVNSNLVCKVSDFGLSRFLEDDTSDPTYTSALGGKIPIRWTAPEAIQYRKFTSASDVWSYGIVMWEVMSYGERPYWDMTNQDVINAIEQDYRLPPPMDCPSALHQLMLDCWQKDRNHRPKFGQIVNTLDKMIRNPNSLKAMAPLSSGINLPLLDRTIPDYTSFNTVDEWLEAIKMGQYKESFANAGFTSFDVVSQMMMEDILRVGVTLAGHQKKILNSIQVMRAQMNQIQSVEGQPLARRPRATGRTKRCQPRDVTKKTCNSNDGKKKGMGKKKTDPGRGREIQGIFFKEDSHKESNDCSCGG
Sequence of Jak2 (O60674 whole entry, looked up): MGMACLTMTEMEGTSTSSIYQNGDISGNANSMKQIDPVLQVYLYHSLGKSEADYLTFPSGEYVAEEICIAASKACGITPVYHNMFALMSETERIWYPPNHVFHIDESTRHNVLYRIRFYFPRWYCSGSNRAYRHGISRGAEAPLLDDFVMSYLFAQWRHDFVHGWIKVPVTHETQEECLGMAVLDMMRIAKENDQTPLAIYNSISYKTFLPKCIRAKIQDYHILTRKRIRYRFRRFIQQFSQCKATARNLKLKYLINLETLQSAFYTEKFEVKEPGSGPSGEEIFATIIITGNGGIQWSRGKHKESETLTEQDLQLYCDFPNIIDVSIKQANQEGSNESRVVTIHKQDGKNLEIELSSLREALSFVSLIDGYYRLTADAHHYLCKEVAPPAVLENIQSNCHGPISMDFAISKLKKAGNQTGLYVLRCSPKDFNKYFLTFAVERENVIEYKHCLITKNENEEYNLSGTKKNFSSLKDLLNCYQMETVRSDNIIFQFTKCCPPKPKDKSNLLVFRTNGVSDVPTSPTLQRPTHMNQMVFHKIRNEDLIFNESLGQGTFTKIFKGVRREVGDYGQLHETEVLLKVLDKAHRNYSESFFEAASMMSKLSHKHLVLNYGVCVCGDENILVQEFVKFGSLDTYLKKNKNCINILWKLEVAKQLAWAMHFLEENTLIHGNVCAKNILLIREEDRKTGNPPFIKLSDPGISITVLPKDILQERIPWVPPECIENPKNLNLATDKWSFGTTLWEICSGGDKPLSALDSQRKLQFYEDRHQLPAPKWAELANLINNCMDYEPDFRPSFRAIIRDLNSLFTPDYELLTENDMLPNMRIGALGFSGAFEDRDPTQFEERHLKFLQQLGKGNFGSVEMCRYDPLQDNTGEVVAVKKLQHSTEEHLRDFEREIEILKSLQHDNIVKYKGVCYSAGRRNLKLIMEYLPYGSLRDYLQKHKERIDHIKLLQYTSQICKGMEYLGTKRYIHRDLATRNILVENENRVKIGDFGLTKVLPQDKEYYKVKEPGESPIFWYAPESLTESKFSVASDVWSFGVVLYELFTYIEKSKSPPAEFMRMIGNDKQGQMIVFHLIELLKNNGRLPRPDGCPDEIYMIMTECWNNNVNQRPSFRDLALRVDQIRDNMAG
Sequence of Hck (P08631 whole entry, looked up): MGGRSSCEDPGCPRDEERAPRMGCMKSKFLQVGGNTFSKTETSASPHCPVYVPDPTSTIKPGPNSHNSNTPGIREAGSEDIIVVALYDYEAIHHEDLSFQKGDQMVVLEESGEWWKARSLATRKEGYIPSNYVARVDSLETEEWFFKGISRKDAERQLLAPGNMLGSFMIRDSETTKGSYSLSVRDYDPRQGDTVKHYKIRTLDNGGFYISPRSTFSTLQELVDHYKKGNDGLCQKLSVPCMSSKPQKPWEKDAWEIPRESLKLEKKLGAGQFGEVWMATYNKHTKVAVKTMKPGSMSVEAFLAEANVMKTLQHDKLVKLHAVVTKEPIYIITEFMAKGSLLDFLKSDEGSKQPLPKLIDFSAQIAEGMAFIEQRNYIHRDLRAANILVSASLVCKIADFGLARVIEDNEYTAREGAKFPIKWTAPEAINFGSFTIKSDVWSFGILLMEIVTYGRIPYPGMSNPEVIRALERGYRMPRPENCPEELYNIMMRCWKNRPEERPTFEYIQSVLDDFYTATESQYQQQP
Sequence of Grb2 SH2 (P62993 whole entry, looked up): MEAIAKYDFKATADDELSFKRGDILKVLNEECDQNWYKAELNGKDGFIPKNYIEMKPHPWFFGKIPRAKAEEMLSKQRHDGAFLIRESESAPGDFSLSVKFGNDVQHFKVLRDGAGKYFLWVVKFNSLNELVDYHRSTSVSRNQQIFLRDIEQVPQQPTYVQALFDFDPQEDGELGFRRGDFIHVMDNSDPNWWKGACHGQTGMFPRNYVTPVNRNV

For the sequence GDEEDYYEIPG [EGFR_opt_no-pY_2015], the phosphorylation enrichment in [1] came to 0.963; in [2], 1.34; in series [3], 1.19; in series [4], 1.64; in series [5], 2.82; in series [6], 1.32. Further, the phosphorylation enrichment in series [7] came out at 1.26; in series [8], 0.811; in series [9] it was 0.968; in series [10] it was 0.919; in series [11], 6.05; in series [12], 5.79. In series [13], the phosphorylation enrichment was 3.2. The values for the SH2 binding enrichment in series [14], in series [15] and in series [16] were 0.87, 1.84 and 0.67, respectively.
Consider GDNSIYVTKII [DLG1_Y349], for which the phosphorylation enrichment in [1] was determined as 0.863; in series [2], 0.689; in series [3], 0.622; in series [4], 0.782; in [5] it was 0.521; in [6], 0.768. The phosphorylation enrichment in series [7] was 0.693; in series [8], 0.524; in series [9] it was 0.518; in series [10], 0.472; in series [11], 0.523; in series [12], 0.537. Further, the phosphorylation enrichment in series [13] was found to be 0.748. In addition, the SH2 binding enrichment came to 0.878 in series [14], 0.36 in series [15] and 0.661 in [16].
With GESSGYLRLAF [MEP1A_Y481_R476G], the phosphorylation enrichment in series [1] worked out at 0.451; in series [2], 1.02; in series [3] it was 0.474; in series [4], 1.02; in series [5], 0.507; in series [6], 0.459. In addition, the phosphorylation enrichment stood at 0.49 in series [7]; 0.464 in series [8]; 0.752 in series [9]; 0.536 in series [10]; 0.559 in series [11]; 0.696 in series [12]. For the same sequence, in [13], the phosphorylation enrichment came to 0.964. Besides, the SH2 binding enrichment in series [14] was 0.919; in [15], 0.602; in series [16], 4.31.
GFPVHYTGVSN [DNMT3B_Y815_D817G]: the phosphorylation enrichment was found to be 0.438 in [1]; 0.424 in [2]; 0.359 in [3]; 0.598 in [4]; 0.453 in series [5]; 0.358 in series [6]. In addition, the phosphorylation enrichment in series [7] came out at 0.424; in [8], 0.361; in [9] it was 0.608; in series [10] it was 0.38; in series [11], 0.392; in [12], 0.413. Also, in [13], the phosphorylation enrichment turned out to be 0.545. Further, the figures for the SH2 binding enrichment in series [14], in series [15] and in series [16] were 0.878, 1.06 and 2.09, respectively.
Consider GGEEFYVHYVG [KAT8_Y90_R86G], for which the phosphorylation enrichment in series [1] came to 0.488; in [2] it was 1.22; in [3], 0.547; in [4], 1.21; in series [5], 0.532; in series [6] it was 0.565. The phosphorylation enrichment in [7] is 0.532; in series [8], 0.455; in series [9], 0.741; in [10], 0.627; in series [11], 0.681; in series [12] it was 0.849. For the same sequence, the phosphorylation enrichment in series [13] was determined as 1.32. Besides, the SH2 binding enrichment in [14] is 0.931; in series [15] it was 0.495; in series [16], 1.89.
Take GGFTCYSDGKK [PROS1_Y266_C267S_YF]: the phosphorylation enrichment stood at 0.55 in series [1]; 1.37 in [2]; 0.55 in [3]; 1.51 in [4]; 0.654 in series [5]; 0.471 in series [6]. Also, the phosphorylation enrichment in [7] was 0.586; in [8] it was 0.437; in series [9] it was 0.856; in [10], 0.689; in series [11], 0.555; in series [12] it was 0.933. Also, the phosphorylation enrichment in series [13] is 1.3. Further, the results for the SH2 binding enrichment in [14], in [15] and in series [16] were 0.711, 0.317 and 0.547, respectively.
In the case of GGGFGYQKTRK [DDX18_Y643_K647R], the phosphorylation enrichment in series [1] turned out to be 0.393; in series [2], 0.57; in series [3], 0.401; in series [4], 0.613; in series [5], 0.422; in series [6] it was 0.492. In addition, the phosphorylation enrichment amounted to 0.302 in series [7]; 0.514 in [8]; 0.719 in [9]; 0.629 in series [10]; 0.422 in series [11]; 0.46 in series [12]. Besides, the phosphorylation enrichment in series [13] is 0.597. The SH2 binding enrichment in [14] came to 0.976; in [15], 0.536; in series [16], 0.461.
With GGMAKYTRLHN [EHHADH_Y4_E3K], the phosphorylation enrichment in [1] is 0.343; in series [2], 0.641; in [3], 0.318; in [4], 0.542; in [5] it was 0.343; in series [6], 0.334. The phosphorylation enrichment in series [7] came to 0.458; in [8], 0.407; in series [9], 0.491; in [10], 0.351; in series [11], 0.39; in [12], 0.398. In addition, in [13], the phosphorylation enrichment was determined as 0.492. The SH2 binding enrichment is 1.12 in [14], 1.43 in [15] and 1.42 in series [16].
